From publication PMC6597583

Experiments:
[1] = target: AtCYP19-3 (Arabidopsis thaliana)
[2] = target: BnCYP18-5 (Brassica napus)
[3] = target: BnCYP18-4 (Brassica napus)
[4] = target: BnCYP19-1 (Brassica napus)

IC50 of CsA for inhibition of PPIase activity (protease-coupled assay, substrate Suc-AAPF-pNA, 5 nM protein, 0 to 1000 nM CsA, 4 °C) [1]: 20.4 nM
IC50 of CsA for inhibition of PPIase activity (protease-coupled assay, substrate Suc-AAPF-pNA, 5 nM protein, 0 to 1000 nM CsA, 4 °C) [2]: 22.4 nM
IC50 of CsA for inhibition of PPIase activity (protease-coupled assay, substrate Suc-AAPF-pNA, 5 nM protein, 0 to 1000 nM CsA, 4 °C) [3]: 14.2 nM
IC50 of CsA for inhibition of PPIase activity (protease-coupled assay, substrate Suc-AAPF-pNA, 5 nM protein, 0 to 1000 nM CsA, 4 °C) [4]: 16.6 nM
Substance: cyclosporin A (peptide)
